The series relates to TfuCascade (Cse2 N23A, Cas7-NLS) + TfuCas3 (Type I-E) Cse2 N23A (Thermobifida fusca). Nature of the series: cell_activity. The conditions noted are these: PAM AAG; for activity (% editing (6-TG resistance)): HAP1 cells RNP.

Regarding “AUGGACCGAAGCCGAGGCUCCCCCAGCGAAGCCCCUUUCCGUGAGCCCCACGCACGUGGG / AAGAAGCCGAGGCTCCCCCAGCGAAGCCCCTTTCC / GGAAAGGGGCTTCGCTGGGGGAGCCTCGGCTTCTT [crRNA HPRT-G2 ; HPRT target G2 (PAM+protospacer)]”, the activity (% editing (6-TG resistance)) is 32. Consider “AUGGACCGACCUUGCACUACCUGUGGCUUCCAUUUUCCUGGUGAGCCCCACGCACGUGGG / AAGACCTTGCACTACCTGTGGCTTCCATTTTCCTG / CAGGAAAATGGAAGCCACAGGTAGTGCAAGGTCTT [crRNA HPRT-G1 ; HPRT target G1 (PAM+protospacer)]”, for which the activity (% editing (6-TG resistance)) turned out to be 67. Regarding “AUGGACCGCUGGACAUCACCUCCCACAACGAGGACUACACGUGAGCCCCACGCACGUGGG / AAGCTGGACATCACCTCCCACAACGAGGACTACAC / GTGTAGTCCTCGTTGTGGGAGGTGATGTCCAGCTT [crRNA tdTomato ; tdTomato target (PAM+protospacer)]”, the activity (% tdTomato-negative cells) (hESC RNP) was 2.7.

Take “AUGGACCGGCUACGUCCAGGAGCGCACCAUCUUCUUCAAGGUGAGCCCCACGCACGUGGG / AAGGCTACGTCCAGGAGCGCACCATCTTCTTCAAG / CTTGAAGAAGATGGTGCGCTCCTGGACGTAGCCTT [crRNA GFP-G1 ; EGFP target G1 (PAM+protospacer)]”: where the note is “hESC RNP electroporation, 80 pmol Cascade, 20 pmol Cas3, 7.3% in FIG. 1D”, the activity (% EGFP-negative cells) was determined as 13.1. In the case of “AUGGACCGUCGAUGCCCUUCAGCUCGAUGCGGUUCACCAGGUGAGCCCCACGCACGUGGG / AAGTCGATGCCCTTCAGCTCGATGCGGTTCACCAG / CTGGTGAACCGCATCGAGCTGAAGGGCATCGACTT [crRNA GFP-G2 ; EGFP target G2 (PAM+protospacer)]”, the activity (% EGFP-negative cells) (hESC RNP) came out at 2.7.

The record behind these values is patent publication US20220315920.
